Test results: the supplement of paper PMC7877785
± gives the uncertainty stated by the source.

Test: self-splicing fitness, log relative to wild type (ln ratio); higher = more splicing; Tetrahymena group I intron in knt gene, E. coli kanamycin selection, DiMSum; sequences stand for … in CUCUCU…GGAGGGAAAAGUUAUCAGGCAUGCACCUGGUAGCUAGUCUUUAAACCAAUAGAUUGCAUCGGUUUAAAAGGCAAGACCGUCAAAUUGCGGGAAAGGGGUCAACAGCCGUUCAGUACCAAGUCUCAGGGGAAACUUUGAGAUGGCCUUGCAAAGGGUAUGGUAAUAAGCUGACGGACAUGGUCCUAACCACGCAGCCAAGUCCUAAGUCAACAGAUCUUCUGUUGAUAUGGAUGCAGUUCACAGACUAAAUGUCGGUCGGGGAAGAUGUAUUCUUCUCAUAAGAUAUAGUCGGACCUCUCCUUAAUGGGAGCUAGCGGAUGAAGUGAUGCAACACUGGAGCCGCUGGGAACUAAUUUGUAUGCGAAAGUAUAUUGAUUAGUUUUGGAGUACUCGUGGUCG
Procedure, shortened: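 Pooled colonies went to amplicon sequencing on an Illumina HiSeq 2500 after six replicate transformations. The plates were LB agar with 100 μg/mL carbenicillin, 50 μM IPTG and 0.2% rhamnose, with or without 25 μg/mL kanamycin, incubated overnight at 37°C or 30°C. The E. coli BL21(DE3) library had all eight P1ex-region intron nucleotides randomised, the intron placed in the knt kanamycin-resistance gene on pET-22b(+). DiMSum fitness is the error-weighted combination of replicate fold changes, kanamycin against none, normalised to wild type.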

Sequence	self-splicing fitness (ln) (30 °C)	self-splicing fitness (ln) (37 °C)
CCCUAGCAAUAUUACGCGAG	-3.61 ± 0.19	-3.25 ± 0.21
UACGAGCAAUAUUACGGGGA	-2.87 ± 0.29	-1.69 ± 0.19
UGGUAGCAAUAUUACGGCCC	-0.562 ± 0.18	-0.000115 ± 0.21
GGACAGCAAUAUUACGUAAU	-0.0161 ± 0.056	-0.0127 ± 0.07
UGCGAGCAAUAUUACGGCGG	-1.21 ± 0.084	-0.816 ± 0.13
CGUUAGCAAUAUUACGCUAG	-2.66 ± 0.17	-1.51 ± 0.25
UCGAAGCAAUAUUACGUCUA	0.0685 ± 0.078	0.296 ± 0.077
AAAGAGCAAUAUUACGGCUA	-1.28 ± 0.11	-1.13 ± 0.13
CACAAGCAAUAUUACGUCUU	-3.88 ± 0.17	-2.25 ± 0.14
GUUUAGCAAUAUUACGGAAU	-2.56 ± 0.31	-1.26 ± 0.31
AUCGAGCAAUAUUACGAGGC	–	-1.13 ± 0.28
AGAUAGCAAUAUUACGAGGG	-3.73 ± 0.41	-1.77 ± 0.33
AGUCAGCAAUAUUACGGUUU	-0.329 ± 0.065	-0.197 ± 0.08
AAAGAGCAAUAUUACGAACA	-2.07 ± 0.35	-2.02 ± 0.4
AUGUAGCAAUAUUACGGGGG	-3.28 ± 0.27	-2.47 ± 0.37
AUGGAGCAAUAUUACGAAUC	-3.53 ± 0.32	-1.97 ± 0.36
UCCAAGCAAUAUUACGGCAA	-0.817 ± 0.095	-0.0878 ± 0.095
CAGGAGCAAUAUUACGUAUU	-2.97 ± 0.21	-2.2 ± 0.18
GCACAGCAAUAUUACGGCGC	-1.54 ± 0.1	-0.777 ± 0.12
UGCAAGCAAUAUUACGAGCG	-2.37 ± 0.092	-0.896 ± 0.1
UUGAAGCAAUAUUACGGAAU	-3.36 ± 0.14	-1.15 ± 0.12
UAGGAGCAAUAUUACGAUGC	-1.78 ± 0.23	-1.01 ± 0.17
UCACAGCAAUAUUACGAGCG	-0.409 ± 0.064	-0.305 ± 0.093
GUUCAGCAAUAUUACGCCUA	-0.396 ± 0.15	0.127 ± 0.14
AAUAAGCAAUAUUACGGAAU	-2.69 ± 0.15	-0.645 ± 0.11
AUCCAGCAAUAUUACGUUAG	-3.22 ± 0.17	-3.56 ± 0.35

Sequence	self-splicing fitness (ln) (30 °C)	self-splicing fitness (ln) (37 °C)
ACAUAGCAAUAUUACGUGGA	-3.3 ± 0.23	-2.37 ± 0.14
AAGUAGCAAUAUUACGGAGC	-3.21 ± 0.32	-1.35 ± 0.23
AGCAAGCAAUAUUACGUAAU	-1.99 ± 0.1	-1.27 ± 0.12
UGACAGCAAUAUUACGGAAU	-4.15 ± 0.28	-1.55 ± 0.17
AACCAGCAAUAUUACGAUUC	-1.63 ± 0.071	-0.153 ± 0.084
GUAUAGCAAUAUUACGAAAA	–	-1.18 ± 0.22
UGGGAGCAAUAUUACGGGAC	-4.71 ± 0.46	-2.7 ± 0.38
AGAGAGCAAUAUUACGAAUU	-1.19 ± 0.2	-2.95 ± 0.32
CCGUAGCAAUAUUACGUGGC	-3.76 ± 0.26	-2.73 ± 0.26
AACAAGCAAUAUUACGGAAA	-3.08 ± 0.15	-1.34 ± 0.11
CAUAAGCAAUAUUACGUGAC	-2.48 ± 0.15	-2.03 ± 0.22
AGGUAGCAAUAUUACGGGCC	-1.74 ± 0.024	-1.5 ± 0.041
CCUCAGCAAUAUUACGCGGA	-2.68 ± 0.22	-3.28 ± 0.26
UGCGAGCAAUAUUACGCCGA	–	-1.26 ± 0.4
UGUGAGCAAUAUUACGUCUU	-2.9 ± 0.29	-2.27 ± 0.3
CUGUAGCAAUAUUACGACAG	-4.61 ± 0.3	-1.97 ± 0.21
GACUAGCAAUAUUACGCACU	-0.55 ± 0.11	0.415 ± 0.16
GCAGAGCAAUAUUACGUCCG	-2.57 ± 0.14	-2.51 ± 0.17
UAGCAGCAAUAUUACGCCAC	-3.82 ± 0.39	-1.45 ± 0.3
UUCUAGCAAUAUUACGACUC	-3.11 ± 0.31	-0.392 ± 0.14
GAAAAGCAAUAUUACGCAUA	-1.72 ± 0.093	-0.672 ± 0.083
CGUCAGCAAUAUUACGCCUA	-2.32 ± 0.29	-0.757 ± 0.18
UUGCAGCAAUAUUACGCAAU	-3.95 ± 0.42	-1.86 ± 0.14
CAAGAGCAAUAUUACGGACG	-0.541 ± 0.074	0.217 ± 0.093
CCACAGCAAUAUUACGUAAA	-3.84 ± 0.17	-2.06 ± 0.18
UGCUAGCAAUAUUACGUAAC	-3.31 ± 0.28	-1.84 ± 0.29

Sequence	self-splicing fitness (ln) (30 °C)	self-splicing fitness (ln) (37 °C)
UCCCAGCAAUAUUACGGGGA	-3.53 ± 0.17	-2.43 ± 0.16
UGAAAGCAAUAUUACGAUGU	-3.04 ± 0.2	-1.81 ± 0.21
AAUCAGCAAUAUUACGCUCU	-0.00647 ± 0.077	0.0812 ± 0.097
AGAUAGCAAUAUUACGCCAU	-2.38 ± 0.12	-1.27 ± 0.13
GAUGAGCAAUAUUACGACUA	-1.79 ± 0.12	-0.933 ± 0.11
CAUCAGCAAUAUUACGUACA	-2.24 ± 0.14	-1.92 ± 0.16
CGCUAGCAAUAUUACGAGAA	–	-1.99 ± 0.29
CAGGAGCAAUAUUACGCGUA	-2.85 ± 0.16	-2.03 ± 0.18
AUUUAGCAAUAUUACGCUCU	0.51 ± 0.27	0.235 ± 0.44
AGAAAGCAAUAUUACGUCGU	-1.9 ± 0.059	-0.452 ± 0.081
GGCGAGCAAUAUUACGGUCG	-1.13 ± 0.13	-0.98 ± 0.16
AUCAAGCAAUAUUACGUAUA	-2.76 ± 0.23	-2.31 ± 0.19
AGGUAGCAAUAUUACGAAAG	-3.732 ± 0.036	-2.49 ± 0.045
GCCUAGCAAUAUUACGAGCG	-1.38 ± 0.1	0.0723 ± 0.13
UUGGAGCAAUAUUACGUUCA	-2.45 ± 0.4	-1 ± 0.31
GGAAAGCAAUAUUACGCACU	-1.35 ± 0.22	-1.57 ± 0.3
AACCAGCAAUAUUACGCCCA	-0.618 ± 0.22	-0.865 ± 0.18
GAUUAGCAAUAUUACGUGGA	-3.92 ± 0.3	-0.488 ± 0.13
CCGGAGCAAUAUUACGAUUG	-0.529 ± 0.094	0.132 ± 0.14
UCAGAGCAAUAUUACGCUUA	-2.91 ± 0.24	-2.48 ± 0.18
UAGCAGCAAUAUUACGGAUG	-1.19 ± 0.073	-0.912 ± 0.079
CGGUAGCAAUAUUACGGCAA	-2.22 ± 0.19	-2.52 ± 0.28
ACCCAGCAAUAUUACGAAUU	-1.63 ± 0.075	-0.951 ± 0.094
UGGGAGCAAUAUUACGUAAA	-1.97 ± 0.36	–
CAAGAGCAAUAUUACGUUUA	-2.84 ± 0.26	-1.61 ± 0.23
CUGGAGCAAUAUUACGCCGA	-1.18 ± 0.34	–
